B1: KCNG1 (parent)
chain: LFVTVTAVNLSVSTLPSLREEEEQ
B2: SNAP91 (parent)
chain: FGGSFMAPSPSPVTPAQNNLLQPN

We go through 94 variants from the supplement of paper PMC10567573.
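Note: lentivirally expressed fusions sorted by FACS into six bins by GFP to DsRed ratio, PSI derived from sequencing read proportions per bin multiplied by bin number.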

The variants in one series derive from B1. As to the kind of experiment: protein stability index of a GFP-peptide fusion (GPS, HEK-293T) (PSI 1-6); higher = more stable. To be noted: c terminus: a fixed tail appended.
For the variant LFVTVTACNLSVSTLPSLREEEEQ, the protein stability index was found to be 3.11.

As to LFVTVTAHNLSVSTLPSLREEEEQ, the protein stability index came out at 2.95.

In the case of LFVTVTATNLSVSTLPSLREEEEQ, the protein stability index was determined as 2.09.

For LFVTVTAQNLSVSTLPSLREEEEQ, the protein stability index came out at 1.85.

With LFVTVTASNLSVSTLPSLREEEEQ, the protein stability index worked out at 2.77.

In the case of LFVTVTAENLSVSTLPSLREEEEQ, the protein stability index turned out to be 3.16.

In the case of LFVTVTAKNLSVSTLPSLREEEEQ, the protein stability index is 2.15.

In the case of LFVTVTARNLSVSTLPSLREEEEQ, the protein stability index stood at 2.51.

LFVTVTAYNLSVSTLPSLREEEEQ: the protein stability index was determined as 2.15.

Take LFVTVTAMNLSVSTLPSLREEEEQ: the protein stability index was found to be 1.23.

Turning to LFVTVTAANLSVSTLPSLREEEEQ, the protein stability index is 2.02.

For the variant KFVTVTAVNLSVSTLPSLREEEEQ, the protein stability index is 3.84.

Turning to AFVTVTAVNLSVSTLPSLREEEEQ, the protein stability index amounted to 1.78.

As for HFVTVTAVNLSVSTLPSLREEEEQ, the protein stability index was determined as 3.62.

As to DFVTVTAVNLSVSTLPSLREEEEQ, the protein stability index was found to be 4.52.

Consider CFVTVTAVNLSVSTLPSLREEEEQ, for which the protein stability index was found to be 2.1.

As to IFVTVTAVNLSVSTLPSLREEEEQ, the protein stability index turned out to be 2.27.

As for YFVTVTAVNLSVSTLPSLREEEEQ, the protein stability index worked out at 1.97.

Take SFVTVTAVNLSVSTLPSLREEEEQ: the protein stability index worked out at 3.56.

FFVTVTAVNLSVSTLPSLREEEEQ: the protein stability index is 1.95.

For the variant TFVTVTAVNLSVSTLPSLREEEEQ, the protein stability index worked out at 2.62.

In the case of GFVTVTAVNLSVSTLPSLREEEEQ, the protein stability index was determined as 3.23.

Consider RFVTVTAVNLSVSTLPSLREEEEQ, for which the protein stability index worked out at 3.04.

Regarding QFVTVTAVNLSVSTLPSLREEEEQ, the protein stability index turned out to be 3.71.

Consider MFVTVTAVNLSVSTLPSLREEEEQ, for which the protein stability index is 1.98.

Turning to PFVTVTAVNLSVSTLPSLREEEEQ, the protein stability index worked out at 4.33.

On to EFVTVTAVNLSVSTLPSLREEEEQ, for which the protein stability index amounted to 4.32.

For NFVTVTAVNLSVSTLPSLREEEEQ, the protein stability index was 4.05.

In the case of LFLTVTAVNLSVSTLPSLREEEEQ, the protein stability index was 1.53.

For LFGTVTAVNLSVSTLPSLREEEEQ, the protein stability index amounted to 3.53.

As for LFQTVTAVNLSVSTLPSLREEEEQ, the protein stability index was found to be 3.58.

Regarding LFDTVTAVNLSVSTLPSLREEEEQ, the protein stability index turned out to be 4.92.

LFKTVTAVNLSVSTLPSLREEEEQ: the protein stability index amounted to 3.71.

As for LFITVTAVNLSVSTLPSLREEEEQ, the protein stability index was determined as 2.67.

With LFMTVTAVNLSVSTLPSLREEEEQ, the protein stability index stood at 1.75.

Regarding LFHTVTAVNLSVSTLPSLREEEEQ, the protein stability index worked out at 3.75.

Regarding LFWTVTAVNLSVSTLPSLREEEEQ, the protein stability index was 1.91.

Take LFYTVTAVNLSVSTLPSLREEEEQ: the protein stability index came out at 1.92.

Turning to LFATVTAVNLSVSTLPSLREEEEQ, the protein stability index was determined as 2.67.

Turning to LFSTVTAVNLSVSTLPSLREEEEQ, the protein stability index was determined as 4.05.

Turning to LFETVTAVNLSVSTLPSLREEEEQ, the protein stability index stood at 4.93.

With LFTTVTAVNLSVSTLPSLREEEEQ, the protein stability index worked out at 4.52.

As to LFNTVTAVNLSVSTLPSLREEEEQ, the protein stability index was 4.51.

As for LFFTVTAVNLSVSTLPSLREEEEQ, the protein stability index amounted to 1.65.

On to LFPTVTAVNLSVSTLPSLREEEEQ, for which the protein stability index was 5.3.

In the case of LFRTVTAVNLSVSTLPSLREEEEQ, the protein stability index was determined as 4.5.

With LFCTVTAVNLSVSTLPSLREEEEQ, the protein stability index was 2.65.

In the case of LFVTVTAVNYSVSTLPSLREEEEQ, the protein stability index worked out at 1.95.

Consider LFVTVTAVNFSVSTLPSLREEEEQ, for which the protein stability index turned out to be 3.38.

On to LFVTVTAVNCSVSTLPSLREEEEQ, for which the protein stability index came to 1.45.

For the variant LFVTVTAVNNSVSTLPSLREEEEQ, the protein stability index worked out at 3.48.

Regarding LFVTVTAVNRSVSTLPSLREEEEQ, the protein stability index came to 3.45.

Regarding LFVTVTAVNPSVSTLPSLREEEEQ, the protein stability index came to 2.32.

As to LFVTVTAVNDSVSTLPSLREEEEQ, the protein stability index was determined as 2.76.

Take LFVTVTAVNGSVSTLPSLREEEEQ: the protein stability index was 2.16.

Regarding LFVTVTAVNWSVSTLPSLREEEEQ, the protein stability index was 2.88.

Turning to LFVTVTAVNHSVSTLPSLREEEEQ, the protein stability index came to 2.44.

Turning to LFVTVTAVNTSVSTLPSLREEEEQ, the protein stability index turned out to be 2.03.

Regarding LFVTVTAVNSSVSTLPSLREEEEQ, the protein stability index turned out to be 2.21.

For the variant LFVTVTAVNISVSTLPSLREEEEQ, the protein stability index stood at 3.17.

As for LFVTVTAVNKSVSTLPSLREEEEQ, the protein stability index came out at 2.47.

On to LFVTVTAVNQSVSTLPSLREEEEQ, for which the protein stability index amounted to 3.77.

As for LFVTVTAVNMSVSTLPSLREEEEQ, the protein stability index was determined as 2.21.

On to LFVTVTAVNVSVSTLPSLREEEEQ, for which the protein stability index turned out to be 1.9.

For the variant LFVTVTAVNLHVSTLPSLREEEEQ, the protein stability index was found to be 1.72.

On to LFVTVTAVNLRVSTLPSLREEEEQ, for which the protein stability index was 2.63.

Take LFVTVTAVNLYVSTLPSLREEEEQ: the protein stability index turned out to be 4.29.

With LFVTVTAVNLGVSTLPSLREEEEQ, the protein stability index was 1.73.

LFVTVTAVNLMVSTLPSLREEEEQ: the protein stability index turned out to be 3.64.

LFVTVTAVNLPVSTLPSLREEEEQ: the protein stability index came out at 2.02.

As to LFVTVTAVNLEVSTLPSLREEEEQ, the protein stability index was determined as 1.72.

The variants in the next series derive from B2. Described as above. To be noted: c terminus: a fixed tail appended.
As for FGGSFMAPSPSPVTEAQNNLLQPN, the protein stability index was found to be 1.93.

In the case of FGGSFMAPSPSPVTVAQNNLLQPN, the protein stability index was found to be 2.12.

With FGGSFMAPSPSPVTHAQNNLLQPN, the protein stability index is 2.27.

On to FGGSFMAPSPSPVTMAQNNLLQPN, for which the protein stability index stood at 3.65.

On to FGGSFMAPSPSPVTKAQNNLLQPN, for which the protein stability index is 1.83.

Turning to FGGSFMAPSPSPVTDAQNNLLQPN, the protein stability index stood at 2.67.

FGGSFMAPSPSPVTWAQNNLLQPN: the protein stability index stood at 1.6.

As for FGGSFMAPSPSPVTTAQNNLLQPN, the protein stability index was found to be 2.01.

On to FGGSFMAPSPSPVTSAQNNLLQPN, for which the protein stability index was 2.19.

On to FGGSFMAPSPSPVTGAQNNLLQPN, for which the protein stability index worked out at 2.3.

On to FGGSFMAPSPSPVTNAQNNLLQPN, for which the protein stability index was 1.79.

Turning to FGGSFMAPSPSPVTLAQNNLLQPN, the protein stability index was found to be 1.95.

FGGSFMAPSPSPVTCAQNNLLQPN: the protein stability index was determined as 4.08.

As for FGGSFMAPSPSPVTRAQNNLLQPN, the protein stability index amounted to 2.4.

Consider FGGSFMAPSPSPVTYAQNNLLQPN, for which the protein stability index stood at 2.91.

With FGGSFMAPSPSPVTFAQNNLLQPN, the protein stability index amounted to 2.84.

On to FGGSFMAPSPSPVTQAQNNLLQPN, for which the protein stability index is 2.27.

As for FGGSFMAPSPSPVTIAQNNLLQPN, the protein stability index was 2.65.

Regarding FGGSFMAPSPSPVTAAQNNLLQPN, the protein stability index amounted to 1.86.

For FGGSFMAPSPSPVTPAQNNLRQPN, the protein stability index came to 2.88.

With FGGSFMAPSPSPVRPAQNNLLQPN, the protein stability index is 1.54.

Take FGGSFMAPSPSPVWPAQNNLLQPN: the protein stability index was determined as 1.95.

Turning to FGGSFMAPSPSPVVPAQNNLLQPN, the protein stability index was determined as 2.2.
